Measured values from the nanobody polyreactivity screen of Harvey et al. (2022).

Assay: yeast display, Sf9 membrane polyspecificity reagent, FACS + sequencing; frameworks hold sequencing errors
How it was run: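 A nanobody's polyreactivity label depends on the gate it was sorted from. Yeast display cells were stained with 10% biotinylated, detergent-solubilized Sf9 membrane reagent for 1 hour at 4 °C, enriched on streptavidin microbeads and sorted by FACS. The low and high (top ~1%) gates were set on anti-HA fluorescence for expression and streptavidin fluorescence for reagent binding.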

## QVQLVESGGGLVQAGGSLRLSCAASGSIFSSYAMGWYRQAPGKERELVAAISSGGITYYADSVKGRFTISRDNAKNTVYLQMNSLKPEDTAVYYCAAVRRRGTTYDYWGQGTQVTVSS
  polyreactivity (PSR sort gate): high polyreactivity

## QVQLVESGGGLVQAGGSLRLSCAASGSIFSSYAMGWYRQAPGKERELVAAISTAGSTNYADSVKGRFTISRDNAKNTVYLQINSLKPEDTAVYYCAADSGDQQSYGLDLNHDFDYWGQGSQVTVSS
  polyreactivity (PSR sort gate): low polyreactivity

## QVQLVESGGGLVQAGGSLRLSCAASGSIFSSYAMGWYRQAPGKERELVATITSSGGSTYYADSVKGRFTISRDNAKNTVYLQMNSLKPADTAVYYCAASYHTSYSLRRYYYWGQGTQVTVSS
  polyreactivity (PSR sort gate): low polyreactivity

## QVQLVESGGGLVQAGGSLRLSCAASGSIFSSYAMGWYRQAPGKERELVATITSSGGSTYYADSVKGRFTISRDNAKNTVYLQMNSLKPEVTAVYYCAASYHTSYSLRSYYYWGQGTQVTVSS
  polyreactivity (PSR sort gate): low polyreactivity

## QVQLVESGGGLVQAGGSLRLSCAASGSIFSSYAMGWYRQAPGKERELVAVINSGGSTNYADSVKGRFTISRDNAKNSVYVQMKSLKPEDTAVYYCNAYGGTFHNTAAEFDYWRQGTQVTVSS
  polyreactivity (PSR sort gate): low polyreactivity

## QVQLVESGGGLVQAGGSLRLSCAASGSIFSSYGMGWYRQAPGKERELVATITGSGGSTYYSDSVKGRLTISRVNAKNTVYLQMNSLKPEDTAVYYCATRLGWFVKYYTGRYYYWGQGTQVTVSS
  polyreactivity (PSR sort gate): high polyreactivity

## QVQLVESGGGLVQAGGSLRLSCAASGSIFSTNAIGGYRQAPGTQRELVAVITGIGGITYYADSVKGRFTISRDNAKKTVYLQRNSLKPDDTAVYYCADDPISEFSWGVKDRYDYWGQGTQVTVSS
  polyreactivity (PSR sort gate): low polyreactivity

## QVQLVESGGGLVQAGGSLRLSCAASGSIFSTNDRGWYRQAPGKERELVAAISVSGGSTYYADSVKGRFTISRDNAKNTVYLQMNSLKPEDTAVYYCNADYTRGTMYYWGQGTQVTVSS
  polyreactivity (PSR sort gate): low polyreactivity

## QVQLVESGGGLVQAGGSLRLSCAASGSIFSTYAIVWYRQAPGKERELVAAISVSGGRTYYADSVKGRFTISRDNAKYTVYLQMNSLKPEDTAVYYCNAYPFWRDYDYWGQGTQVTVSS
  polyreactivity (PSR sort gate): high polyreactivity

## QVQLVESGGGLVQAGGSLRLSCAASGSIFSTYAMGWYRQAPVKERELVAAINSGDSTSYADSVKGRFTISRDNAKNTVYLQMNSLKPEDTAVYYCAAKTGGYWYLRRTARYESWGQGTQVTVSS
  polyreactivity (PSR sort gate): low polyreactivity

## QVQLVESGGGLVQAGGSLRLSCAASGSIFSTYTMGWYRQAPGTERELVAAITRSGGSTYNADSVKGRFTISRDNAKNTVYLQMNSLKPEDTAVYYCAARWKFPSSFYYWGQGTQVTVSS
  polyreactivity (PSR sort gate): high polyreactivity

## QVQLVESGGGLVQAGGSLRLSCAASGSIFSVNAMGWYRQAPGTEREFVASINFRGGRTYYADSVKGRFRISRDNAKNTVYLQMNCLKPEDTADYYCAAVITLTDTGYGPSFRVFYWGQGTQVTVSS
  polyreactivity (PSR sort gate): high polyreactivity

## QVQLVESGGGLVQAGGSLRLSCAASGSIFSVNTMGWYRQAPGKERELVAAISGSGGSTYYADSVKGRFTISRDNATNPVYLQMNSLKPEETAVYYCAKVYRRGAGYNYWGQGTQVTVSS
  polyreactivity (PSR sort gate): high polyreactivity

## QVQLVESGGGLVQAGGSLRLSCAASGSIFSVNTMGWYRQAPGKQRELVAAISESGDGTYYADSVKGRFTISRDNAKNTVYLQMNSLKPEDTAVYYCNADRQKGGGYYPHEFDYWGQGTQVTVSS
  polyreactivity (PSR sort gate): low polyreactivity

## QVQLVESGGGLVQAGGSLRLSCAASGSIFSVYAMGWYRQAPGKERELVAAITSGTSTYADSVKGRFTISRDNAKNTVYLQMNSLKPEDTAVYYCAAESGSPGYYYWGQGTQVTVSS
  polyreactivity (PSR sort gate): low polyreactivity

## QVQLVESGGGLVQAGGSLRLSCAASGSIFSVYDMGWYRQAPGKERELVAAISRSGGSTYYADSVKGRFTISRDNAKNTVYLQRNSLKPEDTAVYYCNAVRRTGGHGDYWGQGTQVTVSS
  polyreactivity (PSR sort gate): high polyreactivity

## QVQLVESGGGLVQAGGSLRLSCAASGSIFSWNAMGWYRPAPGKEREFVAAISYGSTSTTYADSVKGRFTISRDNAKNTVYLQMNSLKPEDTAVYYCAAVPRRSGHQRWGATYYYWGQGTQVTVSS
  polyreactivity (PSR sort gate): high polyreactivity

## QVQLVESGGGLVQAGGSLRLSCAASGSIFSWNAMGWYRQAPGKERELVAAISTRGSSTYYADSVKGRFTISRDNAKNTVYLQMNSLKPEDTAVYYCNAARTFPFYWGLRGSQRYDYWGQGTQVTVSS
  polyreactivity (PSR sort gate): high polyreactivity

## QVQLVESGGGLVQAGGSLRLSCAASGSIFSYNAMGGYRQAPGKERELVAGITSGASTNYADSVKGRFTISRDNAKNTVYLQMNSLKPEDTAVYYCNADDIFRPRDDLYDYWGQGTQVTVSS
  polyreactivity (PSR sort gate): low polyreactivity

## QVQLVESGGGLVQAGGSLRLSCAASGSIFSYNAMGWYRQAPGKEREFVAAITSSGTRTYYADSVKGRFTISRDNAKNTVYLQMNSLKPEDTAVYYCAAKPSRYGIGFYWGQGTQVTVSS
  polyreactivity (PSR sort gate): high polyreactivity

## QVQLVESGGGLVQAGGSLRLSCAASGSIFSYNAMGWYRQAPGKERELVAAISWSGGSTYYADSVKGRFTISRDNAKNTVYLQMNSLKPEDTAVYYCNAYRYRQSSSDKYGYWGQGTQVTVSS
  polyreactivity (PSR sort gate): high polyreactivity

## QVQLVESGGGLVQAGGSLRLSCAASGSIFSYNAMGWYRQAPGKERELVAAITWSGGSTYYADSVKGRFTISRDNAKNTVYLQMNSLKPEDTAVYYCAAVYDDYSTSVGYSPEYDYWGQGTQVTESS
  polyreactivity (PSR sort gate): high polyreactivity

## QVQLVESGGGLVQAGGSLRLSCAASGSIFSYNGMGWYRQAPGKERELVATISASSVTTYYADSVKGRFTFSRDNAMNTVYLQMNSLKPEDTAVYYCARDAYSVYYYVFLHWEYDYWGQGTQVTVSS
  polyreactivity (PSR sort gate): high polyreactivity

## QVQLVESGGGLVQAGGSLRLSCAASGSIFSYYAMGWYRQAPAKERELVAAISQNACSTYYADSVKGRFTISRDNAKNTVYLQMNSLKPEDTAVYYCNAYSVYVRGEYWGQGTQVNVSS
  polyreactivity (PSR sort gate): high polyreactivity

## QVQLVESGGGLVQAGGSLRLSCAASGSIFSYYAMGWYRQAPGKERELVAAITTSGGSTYYADSVKGRVTISRDNAKNTVYLQMNSLKPEDTAVYYCAAETAWYITTGYDYWGQGTQVTVSS
  polyreactivity (PSR sort gate): low polyreactivity

## QVQLVESGGGLVQAGGSLRLSCAASGSIFSYYAMGWYRQAPGKERELVAAITVRGGSTYYADSVKGRFTISRDNAKNTVYFQMNSLKPEDTAVYYCAADWLDESFSYGPYYYWGQGTQVTVSS
  polyreactivity (PSR sort gate): low polyreactivity

## QVQLVESGGGLVQAGGSLRLSCAASGSIFSYYAMGWYRQAPGKERELVATITSSGSTYADSVKGRFTISRDNAKNTVYLQMNSLKPEDTAVYYCNADSGYSEYWGVDVAYDYWGQGTQVTVSS
  polyreactivity (PSR sort gate): low polyreactivity

## QVQLVESGGGLVQAGGSLRLSCAASGSIFSYYAMGWYRQAPGKERVLVAAIRRGGSTNYADSVKGRFTISRDNAKNTVYLQLNSLKPEDTAVYYCAASLGWRFYYWGQGTQVTVSS
  polyreactivity (PSR sort gate): high polyreactivity

## QVQLVESGGGLVQAGGSLRLSCAASGSIFSYYDMGWYRQAPGKERELVAAIRWSGGITYADSVKGRFTISRDNAKNTVYLEMNSLKPEDTAVYYCAADQYYRSDYYYWGQGTQVTVSS
  polyreactivity (PSR sort gate): low polyreactivity

## QVQLVESGGGLVQAGGSLRLSCAASGSIFSYYTIGWYRKAPGKERELVAAISFSGTSTYYADSVKGRFTISRDNDKNTVYLQMNSLKPEDTAVYFCAKRALYYPTYPKYDTYNRYYWGQGTQGTVSS
  polyreactivity (PSR sort gate): high polyreactivity

## QVQLVESGGGLVQAGGSLRLSCAASGSIFSYYTMGWYRQAPGKERELVAAITKSGGSTYYADSVKGRFTISRDNAKNTVYLQMNSLKPEDTAVYYCAASYGGYPKGNYWGQGTQVTVSS
  polyreactivity (PSR sort gate): high polyreactivity

## QVQLVESGGGLVQAGGSLRLSCAASGSIFTAYAMGWYRQAPGKEMELVAAITYNGGSTYYADSVKGRFTISRDNAKNTVYLQMNSLKPEDTAVYYCAARYWFYYDLYDYWGQGTQVTVSS
  polyreactivity (PSR sort gate): low polyreactivity

## QVQLVESGGGLVQAGGSLRLSCAASGSIFTDNVMGWYRQAPGKERELVAAITYSAASTYYADSVKGRFTISRDNAKNTVYLQMNSLKPEDTAVYYCNARIIYRKWLFRSGTFNYWGQGTQVTVSS
  polyreactivity (PSR sort gate): low polyreactivity

## QVQLVESGGGLVQAGGSLRLSCAASGSIFTDYAMGWYRQAPGKERELVAAITSSGGSTYYADSVKGRFTISRDNAKNTVYLQMNSLKPEDTAVYYCDADRITIYDYWGQGTQVTVSS
  polyreactivity (PSR sort gate): low polyreactivity

## QVQLVESGGGLVQAGGSLRLSCAASGSIFTDYTMGWYRQAPGKERELVAAISWIGDSTDYADSVKGRFTISRDNAKNTVYLQMNSLNPEDTAVYYCAKSRAGRYNDYDYWGQGTQVTVSS
  polyreactivity (PSR sort gate): low polyreactivity

## QVQLVESGGGLVQAGGSLRLSCAASGSIFTFYAMGWYRPAPGKERELVAAITRSGGSTYYADSVKGRFTISRDNAKNTVYLQMNSLKPEDTAVYYCAKDPSSYVTYRYYYWGQGTEVTVSS
  polyreactivity (PSR sort gate): low polyreactivity

## QVQLVESGGGLVQAGGSLRLSCAASGSIFTFYAMGWYRQAPGKERELVAAISYGGGITYYADSVKGRFTISRDNAKISVYLQMNSLIPEDSAVYYCAADDGYYNLYFDYDFWGQGTQLTVSS
  polyreactivity (PSR sort gate): low polyreactivity

## QVQLVESGGGLVQAGGSLRLSCAASGSIFTFYAMGWYRQAPGKERELVASITSGAGITYYADSVKGRFTISRDNAKNTVYLQMNSLKPEDTAVYYCAADWSGDFFTDGYWGQGTQVTVSS
  polyreactivity (PSR sort gate): low polyreactivity

## QVQLVESGGGLVQAGGSLRLSCAASGSIFTFYAMGWYRQAPVKERELVAGIRWRGGTSTFYADSVKGRFTISRDNAKNTVYLQMNSLKPEDTAVYYCAAKRRTGGNGYWGQGTQVTVSS
  polyreactivity (PSR sort gate): high polyreactivity

## QVQLVESGGGLVQAGGSLRLSCAASGSIFTGNTMGWYRQAPGNERELVAAMSRRGGRTYYADSVKGRFTISRDNAKNTVYLQMNSLKPEDPAVYYCAADGWYWTYIVEYWGQGTQVTVSS
  polyreactivity (PSR sort gate): high polyreactivity

## QVQLVESGGGLVQAGGSLRLSCAASGSIFTHNAMGCYRQAPGKERELVAAMSSGGSTNDADSVKGRFTISRDNAKNTVYLKMNSLTPEDTAVYYCAKSIDGWYWRRRRYDYWGQGTQVTVSS
  polyreactivity (PSR sort gate): low polyreactivity

## QVQLVESGGGLVQAGGSLRLSCAASGSIFTHYAMGWYRQAPGKERELVAGITSSGGSTYADSVKGRFTISRDNAKNTVYLQMNSLKPEDTAVYYCNADNATYFVYEFNYWGQGTQVTVSS
  polyreactivity (PSR sort gate): low polyreactivity

## QVQLVESGGGLVQAGGSLRLSCAASGSIFTINAMGWYRQAPGIERALVAAIRSGGGTNYADSVKGRFTISRDNAKNTVYFQMNSLKPEDTAVYYCAADLWAGKYGEYDYWGQGTQVTVSS
  polyreactivity (PSR sort gate): high polyreactivity
